Results on one molecule are retold here after doi:10.1101/2022.08.07.503104, “A tripartite complex HIV-1 Tat-cyclophilin A-capsid protein enables Tat encapsidation that is required for HIV-1 infectivity” (bioRxiv, 2022).

In experiment [1] the target is T1, Recombinant human CypA (human, UniProt P62937 1-165, Monolith RED-NHS 2nd generation fluorescent label, in the MST experiments only).
T1 construct: extra N-terminal gly residue left after TEV cleavage; cyclophilin A (CypA), human; Unlabeled in SEC and SPR, labeled in MST; also called cyclophilin A; labeled CypA; source: E. coli BL21 λDE3, purified (Ni-NTA, TEV cleavage, second Ni-NTA); not shown: His6, N-terminal, cleaved
T1 sequence (P62937 other isoform, or with tags, fused parts or gaps): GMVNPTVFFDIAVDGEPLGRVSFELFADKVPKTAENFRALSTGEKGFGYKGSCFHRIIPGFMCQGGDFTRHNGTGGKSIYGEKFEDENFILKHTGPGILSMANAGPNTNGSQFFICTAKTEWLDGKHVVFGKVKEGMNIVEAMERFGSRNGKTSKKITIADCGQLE
The experiment in a line: MST; fluorescently labeled CypA at 50 nM, partner titrated; where indicated CypA first mixed with 20 µM CA or 1 µM Tat; 20°C, 150 mM NaCl, 50 mM citrate, pH 7.3, 0.05% Tween. To be noted: both partners purified.

Experiment [2] has as its target T1, Recombinant human CypA. The experiment in a line: SPR; Tat immobilised on a CM5S chip by amine coupling (~11000 RU); CypA or equimolecular CypA/CA mix at 370-6000 nM, one cycle kinetic titration, or CA at 2 µM; 25°C, 20 mM phosphate, 30 mM citrate, pH 7, 150 mM NaCl, 0.05% P20; two state fitting model. Conditions: both partners purified. (In general: Surface plasmon resonance follows binding to a sensor surface in real time, without labels.)

B1: Recombinant Tat (86 residues, BH10 isolate) (natural protein)
chain: MEPVDPRLEPWKHPGSQPKTACTNCYCKKCCFHCQVCFITKALGISYGRKKRRQRRRPPQGSQTHQVSLSKQPTSQSRGDPTGPKE
notes: HIV-1 Tat, BH10 isolate, 86 residues; source: E. coli, purified (as Vendeville et al., 2004); lyophilized
The term Kd denotes the constant that tells how readily two partners part at equilibrium. As to B1, the equilibrium dissociation constant (Kd) was determined as 243 ± 23 nM with Recombinant human CypA [1] and 255 ± 10 nM with Recombinant human CypA [2].
